The values that follow are results of earlier work, collected in publication PMC7156326.

The target of this series is GATAD2A coiled-coil (Homo sapiens) (UniProt Q86YP4).
Sequence of UniProt Q86YP4 (Q86YP4 137-178): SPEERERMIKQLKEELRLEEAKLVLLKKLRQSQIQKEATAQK

Take MBD2 coiled-coil (from UniProt Q9UBB5): the Kd (commonly a measure of binding affinity in units of concentration) is 50 nM.
